Our source for the stoichiometry N (ErlB per ErlA (4:4)) values is publication doi:10.1101/2024.12.27.630466.

This test addresses ErlA. As to the kind of experiment: SEC.

In turn, ErlB (natural protein) returned a stoichiometry N (ErlB per ErlA (4:4)) of 1.
